Data: patent publication US20230151108A1 (UCB, published 2023)

T1: human CD9, full-length, expressed on cells (human, UniProt P21926 2-228)
T1 construct: also called Tetraspanin-29
T1 sequence: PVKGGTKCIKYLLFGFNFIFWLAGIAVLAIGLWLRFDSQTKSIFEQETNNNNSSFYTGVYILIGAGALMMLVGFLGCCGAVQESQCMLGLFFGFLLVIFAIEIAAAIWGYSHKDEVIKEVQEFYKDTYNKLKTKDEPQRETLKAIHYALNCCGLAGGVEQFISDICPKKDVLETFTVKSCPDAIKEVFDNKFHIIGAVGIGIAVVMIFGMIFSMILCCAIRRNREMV

T2: CD137 peptide P1 (CRD1)-human Fc fusion protein (human, UniProt Q07011 25-68)
T2 construct: Made in Expi293F cells and used as conditioned medium, captured on anti-hIgG Fc biosensors; not shown: human Fc tag at the C-terminus
T2 chain: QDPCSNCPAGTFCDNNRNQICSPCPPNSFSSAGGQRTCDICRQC

B1: anti-CD9 Fab-Y 7272 (Fab, V domains shown)
VH: QSLEESGGRLVTPGTPLTLTCTVSGFSLSSYAMGWVRQAPGKGLEWIGAIGSITATGYARWAKGRFSISKTSTTVDLKMTSPTTEDTATYFCAREIYVGSAYAFDIWGPGTLVTVSS
VL: AYDMTQTPASVEVAVGDTVTIKCQASQSISNYLAWYQQKPGQPPKLLIYLASTLASGVPSRFKGSGSGTEFTLTISDLECADAATYYCQQGYIDNVNKGFGGGTEVVVK
notes: Tested as Fab-Y: a Fab whose CH1 is joined by a peptide linker to the GCN4 peptide (clone 7P14P); also called VR7272
B2: anti-CD137 Fab-Y 8475 (Fab, V domains shown)
VH: QSVEESGGRLVTPGTPLTLTCTVSGFSLSTYAMSWVRQAPGKGLEWIGAIWSGGTTDYTSWAKGRFTISKASTTVDLKITSPTTEDTATYFCVRMAVIFNAYTFDSWGPGTLVTVSS
VL: AYDMTQTPSSVSAAVGGTVTIKCQASQNIYSYLAWYQQKPGQRPKLLIYGASTLASGVPSRFKGSGSGTDFTLTISDLECDDAATYYCQQGHSSGNVGNNVFGGGTEVVVK
notes: Tested as Fab-Y: a Fab whose CH1 is joined by a peptide linker to the GCN4 peptide (clone 7P14P); also called VR8475

What was measured:
[1] = target: T1, human CD9, full-length, expressed on …; experiment: binding to cells expressing full-length CD9 (selection; method not described)
[2] = target: T2, CD137 peptide P1 (CRD1)-human Fc fusion …; experiment: BLI (Octet RED384), CD137 CRD peptide-Fc on AHC biosensors, Fab-Y at 10 µg/mL; CRD inferred from the peptide binding profile
Method: DNA sequences coding for each peptide (as shown in Table 7) were ordered from Twist Bioscience in a mammalian expression vector with a human Fc tag at the C-terminus. Each plasmid was used to transfect Expi293F™ cells (Gibcon™) to generate the different peptide-human Fc fusion proteins. For transfections, 850 μl of Expi293F™ cells ([…]) were plated in 48-well blocks and transfected with 3 μg of DNA using the ExpiFectamine™ 293 Transfection Kit (ThermoFisher) following the manufacturer's instructions. Cells were incubated in a 37° C., 5% CO₂ environment with shaking at 225 rpm. After 6 days, cells were pelleted (1000×g, 10 min) and the conditioned medias containing each of the peptides were harvested, quantitated and diluted to 1.7 μg/mL in Expi293™ Expression Medium (ThermoFisher). The conditioned medias were used for binding assessment to our panel of antibodies using the Octet® RED384 System (FortéBio) at room temperature with anti-hIgG Fc Capture (AHC) Biosensors (FortéBio). Firstly, an array of 8 sensors was dipped in kinetics buffer (PBS, 0.1% BSA, 0.02% Tween 20) for 180 seconds to provide a baseline signal. […]

Row | Binder | binding result [1] | binding result [2]
1 | B1 | binds | 
2 | B2 |  | binds
